Biological target: IL-18 (human) (UniProt Q14116)
Assay: cell-based or functional assay

decrease in proliferation of CD8+ T cells primed with CD5+ DCs (CFSE dilution): 40%
B1: neutralizing anti-IL-18 mAb (125-2H; MLB) (antibody, from another filing, V domains shown)
VH: EIQLQQSGPELVKPGASVKVSCKASGYSFTDYFIYWVKQSHGKSLEWIGDIDPYNGDTSYNQKFRDKATLTVDQSSTTAFMHLNSLTSEDSAVYFCARGLRFWGQGTLVTVSA
VL: DIQMTQSPSSLSASLGERVSLTCRASQDIGSKLYWLQQEPDGTFKRLIYATSSLDSGVPKRFSGSRSGSDYSLTISSLESEDFVDYYCLQYASSPYTFGGGTKLAIKR

Source: US20190216897A1
